Source: PMC8926151 (Science (New York, N.Y.), 2021)

B1: human GPR158 receptor (receptor, UniProt Q5T848 24-1215, looked up)
chain: ASRDPQGRPDSPRERTPKGKPHAQQPGRASASDSSAPWSRSTDGTILAQKLAEEVPMDVASYLYTGDSHQLKRANCSGRYELAGLPGKWPALASAHPSLHRALDTLTHATNFLNVMLQSNKSREQNLQDDLDWYQALVWSLLEGEPSISRAAITFSTDSLSAPAPQVFLQATREESRILLQDLSSSAPHLANATLETEWFHGLRRKWRPHLHRRGPNQGPRGLGHSWRRKDGLGGDKSHFKWSPPYLECENGSYKPGWLVTLSSAIYGLQPNLVPEFRGVMKVDINLQKVDIDQCSSDGWFSGTHKCHLNNSECMPIKGLGFVLGAYECICKAGFYHPGVLPVNNFRRRGPDQHISGSTKDVSEEAYVCLPCREGCPFCADDSPCFVQEDKYLRLAIISFQALCMLLDFVSMLVVYHFRKAKSIRASGLILLETILFGSLLLYFPVVILYFEPSTFRCILLRWARLLGFATVYGTVTLKLHRVLKVFLSRTAQRIPYMTGGRVMRMLAVILLVVFWFLIGWTSSVCQNLEKQISLIGQGKTSDHLIFNMCLIDRWDYMTAVAEFLFLLWGVYLCYAVRTVPSAFHEPRYMAVAVHNELIISAIFHTIRFVLASRLQSDWMLMLYFAHTHLTVTVTIGLLLIPKFSHSSNNPRDDIATEAYEDELDMGRSGSYLNSSINSAWSEHSLDPEDIRDELKKLYAQLEIYKRKKMITNNPHLQKKRCSKKGLGRSIMRRITEIPETVSRQCSKEDKEGADHGTAKGTALIRKNPPESSGNTGKSKEETLKNRVFSLKKSHSTYDHVRDQTEESSSLPTESQEEETTENSTLESLSGKKLTQKLKEDSEAESTESVPLVCKSASAHNLSSEKKTGHPRTSMLQKSLSVIASAKEKTLGLAGKTQTAGVEERTKSQKPLPKDKETNRNHSNSDNTETKDPAPQNSNPAEEPRKPQKSGIMKQQRVNPTTANSDLNPGTTQMKDNFDIGEVCPWEVYDLTPGPVPSESKVQKHVSIVASEMEKNPTFSLKEKSHHKPKAAEVCQQSNQKRIDKAEVCLWESQGQSILEDEKLLISKTPVLPERAKEENGGQPRAANVCAGQSEELPPKAVASKTENENLNQIGHQEKKTSSSEENVRGSYNSSNNFQQPLTSRAEVCPWEFETPAQPNAGRSVALPASSALSANKIAGPRKEEIWDSFKV

What was measured:
human GPR158 receptor = biological target: B1; experiment: cryo-EM structure
cryo-EM structure = biological target: the molecule itself; experiment: cryo-EM structure

Row | Binder | stoichiometry N (human GPR158 receptor) | stoichiometry N (cryo-EM structure)
1 | RGS7-Gβ5 signaling complex (complex) chain 1: MAQGNNYGQTSNGVADESPNMLVYRKMEDVIARMQDEKNGIPIRTVKSFLSKIPSVFSGSDIVQWLIKNLTIEDPVEALHLGTLMAAHGYFFPISDHVLTLKDDGTFYRFQTPYFWPSNCWEPENTDYAVYLCKRTMQNKARLELADYEAESLARLQRAFARKWEFIFMQAEAQAKVDKKRDKIERKILDSQERAFWDVHRPVPGCVNTTEVDIKKSSRMRNPHKTRKSVYGLQNDIRSHSPTHTPTPETKPPTEDELQQQIKYWQIQLDRHRLKMSKVADSLLSYTEQYLEYDPFLLPPDPSNPWLSDDTTFWELEASKEPSQQRVKRWGFGMDEALKDPVGREQFLKFLESEFSSENLRFWLAVEDLKKRPIKEVPSRVQEIWQEFLAPGAPSAINLDSKSYDKTTQNVKEPGRYTFEDAQEHIYKLMKSDSYPRFIRSSAYQELLQAKKK chain 2: GLHENETLASLKSEAESLKGKLEEERAKLHDVELHQVAERVEALGQFVMKTRRTLKGHGNKVLCMDWCKDKRRIVSSSQDGKVIVWDSFTTNKEHAVTMPCTWVMACAYAPSGCAIACGGLDNKCSVYPLTFDKNENMAAKKKSVAMHTNYLSACSFTNSDMQILTASGDGTCALWDVESGQLLQSFHGHGADVLCLDLAPSETGNTFVSGGCDKKAMVWDMRSGQCVQAFETHESDINSVRYYPSGDAFASGSDDATCRLYDLRADREVAIYSKESIIFGASSVDFSLSGRLLFAGYNDYTINVWDVLKGSRVSILFGHENRVSTLRVSPDGTAFCSGSWDHTLRVWA | 1 RGS7-Gβ5 complex per GPR158 homodimer | –
2 | B1 | – | 2
